According to the domain aggregation screens of Martell et al. (2025):

Assay: soluble fraction after stress (log2 fold change); higher = more stays soluble; pooled small domains, quantitative proteomics
Settings: stress: 75 degC
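Also: 20 min heating vs room temperature control held 20 min.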

Sequence: HMGAKVFTVPNLIGKYAIEAGIILKKEGLSEGEVKEENSDKYAAGQIIDQYPAADSPAKENDKINYVVSIG
- soluble fraction (log2): -0.066

Sequence: HMSRRIEIELTSSRPDGSWTWRAAGAREPKGVLDGTLLSQGSKPGDVVKAEAEFDIDGITIVSITQ
- soluble fraction (log2): -0.405

Sequence: HMEVPTGNHIRRWRKSLDITQVKLSSLSGVAQSIIAKIENETVDPRVSTLRKLVEALSRFENP
- soluble fraction (log2): -1.89

Sequence: HMRQISDPTALASMVDKVIEDNPSAVADYRRGESKALGFLIGRVMQSSGGKANPKMIRGLLVKNLES
- soluble fraction (log2): -0.284

Sequence: HMALQLPFSFAKRHKVLVESAHEPVKVYHTPSTDFAVFAEVRRFLDQTFVLEEIAENRFEELLTSSFQRD
- soluble fraction (log2): -1.1

Sequence: HMSSVVARRARIATLVVETSVASQEELGRLLADEGITVTQATLSRDLDALGAVKVLSADGGTRYRIPGQ
- soluble fraction (log2): -1.87

Sequence: HMRGQLADLWLPREQARRAAEIVAARPVPLGSVKTWIARGKLAPRKTGTGPALYRVGALVSLLAKS
- soluble fraction (log2): -2.14

Sequence: HMSAPAMTLDSIRSLLNDRDPWVVTQTVEWLVGLGPQVKTILETLTLESSDAARQAQNALDRINVRNYP
- soluble fraction (log2): -0.796

Sequence: HMEINKLIELIGGYKALSEVLNVSKSAISNYKKRGSLPSYAIPIIVKELKSKGISIDLSEFT
- soluble fraction (log2): -0.837

Sequence: HMDASVTIEQVERMVQANVSDDVIISQLQGRGAAQNLSTDDIINLTQKGISAEVIKAYQSAG
- soluble fraction (log2): 0.111

Sequence: HMGLGDLEVVDSIGKIRRDGQQMILAFGRHKGRDVQEVYNEDPRYINWLLSPKGIEDENGRGKVRDYLGIN
- soluble fraction (log2): 0.0837

Sequence: HMTVLTDEIKVILISYIKENDFKKKHGNRKMMMTAQDMYDELVEKGYKISYPTVTQYVQKYRENETT
- soluble fraction (log2): -1.63

Sequence: HMNKLIIDAAEDKIFFMIMNNDISYNISHENTKINFEKLIILINDFLSSKKLKINDITGLYV
- soluble fraction (log2): 0.123

Sequence: HMSVSVNAPMPGNILDVRAKTGESIQKGQVIVILEAMKMENEIMAPQDGKISSINTSKGSTVNSGDLLFTM
- soluble fraction (log2): -0.106

Sequence: HMHAGMKSWTIQYEKSPIYGSFLMYKDGNIYIQKEDNVVVHFPLDRFSQNDQAILKSRIEKIDQINKSS
- soluble fraction (log2): -0.761

Sequence: HMLPDPIYEAFMMASDLGIVVRNGPQYAYPDKETGEVLYKALGREKFLQLMKDNDGLLTSIETEIRSM
- soluble fraction (log2): -1.61

Sequence: HMSFRYLHVKRQLMSLIGTMNAHERLPSRTDLSETFQVARTTIERAISELIGEGWLYARDGSGTYVAER
- soluble fraction (log2): -3.45

Sequence: HMLQYSQEIEEAQKILQNLGLYKGEIDGINGVNTKSAIKEFQRKSGLIIDGILGPNTTSALSKGAESYITV
- soluble fraction (log2): 0.0721

Sequence: HMNEISLKEITIEEDHPWRDKKIKELDLKEHILVAMIRRKDQDIIPNGETKIYKDDILVIYD
- soluble fraction (log2): 0.00328

Sequence: HMNDLVTWDRYKIELGDTLSEIAQKLVTRVDILKTVNQIQGTRIIAGNSLMVPRTTDTNVLTYL
- soluble fraction (log2): 0.00348

Sequence: HMKIPQFAVIKQYLEQQIKTAQWAPGRQIPTEQSLADTFSVSRMTARRAVQQLADAGLLERTQGSGTFVAD
- soluble fraction (log2): -0.162

Sequence: HMTGEERRMNTADLYRRRGMELFKRKIYVDAIDSLKVSLEYEDNATTRYYLDLATKRYQDLKIS
- soluble fraction (log2): -2.13

Sequence: HMAEVTLTVREQEVLHLLARGMSNGEMAAHLYVEPTTIKYHLTGLLQKTGSRDRLQAVLWGIRAGMVH
- soluble fraction (log2): -2.81

Sequence: HMVMIPDLVGETIEDAKDILEGLGFEVEVRSEFPESDWGRPFARVTSLSPSAGQEVAKGTLVIIRSF
- soluble fraction (log2): -1.05

Sequence: HMENIEVDFGVGDTVSVIGGAWKDTVGVVQAMNPNKQSLTINVELFGRETPVEISFTDVQKM
- soluble fraction (log2): -0.166

Sequence: HMAGISQGLAENVERRITTLLREQKEVPVHDIDFPGISRETVGQVLHQMVQEEKLLLDDGMISLSPNQ
- soluble fraction (log2): 0.181

Sequence: HMFYQLTENQRRILSSLEQNPRVSAAHLAEEIGISSRKVENNLKKLKEIGLLQRHGSPRKGYWSINQGW
- soluble fraction (log2): -0.938

Sequence: HMFNIIARQEIDEILYEYKIENSEDYKNRDPEELAEIYENIKTVQENHDLSDDDVEELLKSIFSDY
- soluble fraction (log2): -1.25

Sequence: HMFSNATISGLKAGALVRVYNISGVAVSTLTADAEGKVSVDLNNLPKGVYILSTPSKSFKVLN
- soluble fraction (log2): -2.65

Sequence: HMHAQDTLMTRAGETRTVKILEIGLEEIKYRIWGLDDSPVIVIDKIDVKQIVFSNGEKMTIVQ
- soluble fraction (log2): -1.47

Sequence: HMNDEQFAIAKNDLLLSLYDGKEVNNSAAEYIIAWESLEKSPSDYISSQLKNTAESIIKISFD
- soluble fraction (log2): 0.258
